Experimental data from US20240336672A1.

B1: Adintrevimab (antibody, V domains shown)
VH: EVQLVESGGGLVKPGGSLRLSCAASGFTFSSYYMNWVRQAPGKGLEWVSSISEDGYSTYYPDSLKGRFTISRDSAKNSLYLQMNSLRADDTAVYYCARDFSGHTAWAGTGFEYWGQGTLVTVSS
VL: QSVLTQPPSVSGAPGQRITISCTGSSSNIGAGYDVHWYQQLPGTAPKLLIYGSSSRNSGVPDRFSGSKSGTSASLAITGLQAEDEADYYCQSYDSSLSVLYTFGTGTKVTVL
B2: Cilgavimab (antibody, V domains shown)
VH: EVQLVESGGGLVKPGGSLRLSCAASGFTFRDVWMSWVRQAPGKGLEWVGRIKSKIDGGTTDYAAPVKGRFTISRDDSKNTLYLQMNSLKTEDTAVYYCTTAGSYYYDTVGPGLPEGKFDYWGQGTLVTVSS
VL: not shown

Experiments:
Conditions in all cases: remark: other sources report otherwise
[1] = molecular target: SARS-CoV-2 RBD (B.1.1.7) domain (SARS-CoV-2); assay: ELISA
[2] = molecular target: SARS-CoV-2 RBD (B.1.351) domain (SARS-CoV-2); assay: ELISA
[3] = molecular target: SARS-CoV-2 RBD (P.1) domain (SARS-CoV-2); assay: ELISA
[4] = molecular target: T1, SARS-CoV-2 Spike ectodomain (tri-S), Wuhan (SARS-CoV-2), P0DTC2; assay: ELISA
[5] = molecular target: SARS-CoV-2 RBD (B.1.351) domain (SARS-CoV-2); assay: ELISA; unit from paragraph 452, none printed in the heatmap
[6] = molecular target: T1, SARS-CoV-2 Spike ectodomain (tri-S), …; assay: tri-S-ACE2 competition ELISA; unit from legend paragraph 348

Binder	OD405nm [1]	OD405nm [2]	OD405nm [3]	OD405nm [4]	EC50 [5] [ng/mL]	IC50 [6] [ng/mL]
B1	3.4	3.4	3.4	3	7	200
B2		3.3			7	
